Experimental data published in publication doi:10.1101/2020.05.08.083964 (bioRxiv, 2020).

Assays:
[1] = target: T1, extracellular domain of the SARS-CoV-2 S protein (S-ECD) (SARS-CoV-2, Wuhan-Hu-1); experiment: cell-based or functional assay
[2] = target: T1, extracellular domain of the SARS-CoV-2 …; experiment: BLI
[3] = target: S-ECD of SARS-CoV-2 (cryo-EM sample) (SARS-CoV-2, Wuhan-Hu-1); experiment: cryo-EM structure

B1: 4A8 (antibody, V domains shown)
VH: EVQLVESGAEVKKPGASVKVSCKVSGYTLTELSMHWVRQAPGKGLEWMGGFDPEDGETMYAQKFQGRVTMTEDTSTDTAYMELSSLRSEDTAVYYCATSTAVAGTPDLFDYYYGMDVWGQGTTVTVSS
VL: EIVMTQSPLSSPVTLGQPASISCRSSQSLVHSDGNTYLSWLQQRPGQPPRLLIYKISNRFSGVPDRFSGSGAGTDFTLKISRVEAEDVGVYYCTQATQFPYTFGQGTKVDIK
- neutralization of live (authentic) SARS-CoV-2 in Vero-E6 cells, EC50 [1]: 0.607 µg/mL
- Kd [2]: < 2.14 nM
- stoichiometry N [3]: 3
